Source: US20180127510A1 (INSERM INSTITUT NATIONAL DE LA SANT ET DE LA RECHERCHE M …, published 2018)
Substitutions are numbered along the chain they refer to. One block for each binder: values may come before it.

How the values were obtained:
[1] = biological target: T1, human mature (34+14-kDa) Cath-D (human, UniProt P07339 65-162; P07339 169-412); experiment: cleavage of fluorogenic substrate M0938 by mature Cath-D at pH 6, competitive inhibition fit (n=3)
T1 construct: domain: 14-kDa light chain;domain: 34-kDa heavy chain; Purified from human liver (Sigma Aldrich); also called mature Cath-D; mature cath-D
T1 sequence (P07339 65-162 limits assumed, chain 1 of 2): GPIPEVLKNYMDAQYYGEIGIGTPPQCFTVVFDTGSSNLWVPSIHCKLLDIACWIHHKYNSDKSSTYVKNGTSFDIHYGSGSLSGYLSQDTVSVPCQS
T1 sequence (P07339 169-412 limits assumed, chain 2 of 2): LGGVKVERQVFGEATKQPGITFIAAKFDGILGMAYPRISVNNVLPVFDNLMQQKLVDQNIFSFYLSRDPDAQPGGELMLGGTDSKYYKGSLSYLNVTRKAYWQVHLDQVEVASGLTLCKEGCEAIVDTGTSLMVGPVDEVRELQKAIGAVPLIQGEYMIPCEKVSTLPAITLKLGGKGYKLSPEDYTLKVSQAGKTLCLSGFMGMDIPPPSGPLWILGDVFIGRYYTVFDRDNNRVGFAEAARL

[2] = biological target: T2, human 51-kDa pseudo-Cath-D (human, UniProt P07339 47-412, limits assumed); experiment: cleavage of fluorogenic substrate M2295 by pseudo-Cath-D at pH 6, competitive inhibition fit (n=3)
T2 construct: domain: 51-kDa pseudo-Cath-D
T2 sequence (P07339 47-412 limits assumed): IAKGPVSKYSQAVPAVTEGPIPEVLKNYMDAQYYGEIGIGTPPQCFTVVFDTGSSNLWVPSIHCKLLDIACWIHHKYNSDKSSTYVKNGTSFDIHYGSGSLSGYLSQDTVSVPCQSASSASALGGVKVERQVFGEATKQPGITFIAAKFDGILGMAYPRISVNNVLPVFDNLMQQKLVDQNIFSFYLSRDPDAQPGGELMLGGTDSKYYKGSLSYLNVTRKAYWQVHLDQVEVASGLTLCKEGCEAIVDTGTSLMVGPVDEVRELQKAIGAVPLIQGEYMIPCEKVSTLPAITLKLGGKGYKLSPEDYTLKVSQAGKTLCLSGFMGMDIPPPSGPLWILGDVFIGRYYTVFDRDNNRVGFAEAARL

Ki [1]: 24 nM
Ki [2]: 754 nM
B1: anti-Cath-D scFv E2 (scFv, V domains shown)
VH: EVQLVESGGSLVKPGGSLRLSCAASGFTFSNSYMNWVRQAPGKGLEWISYISGSSRYSYADFVKGRFTISRDNATNSLYLQMNSLRAEDTAVYYCVRSSNSYFGGGMDVWGRGTLVTVSS
VL: QSVLTQPASVSGSPGQSITISCAGTSSDVGGSYGVSWYQQHPGKAPKLMIYGDSYRPSGVSNRFSGSKSGNTASLTISGLQAEDEADYYCSSYTNYSTRVFGGGTKLAVL

Ki [1]: 100 nM
Ki [2]: 212 nM
B2: anti-Cath-D scFv F1 (scFv, V domains shown)
VH: EVQLVESGGSLVKPGGSLRLSCAASGFTSNNYMNWVRQAPGKGLEWISYISGSSRYISYADFVKGRFTISRDNATNSLYLQMNSLRAEDTAVYYCVRSSNSGGMDVWGRGTLVTVSS
VL: B1 VL with S32Y, G52Y, N95S, Y96N
